The labels stand for the following.
T1: circularly permuted human TfR apical domain (human)
T1 construct: TfR residues 326-379 stand N-terminal to 194-296, loop 297-325 deleted; also called huTfR Apical Domain
T1 chain: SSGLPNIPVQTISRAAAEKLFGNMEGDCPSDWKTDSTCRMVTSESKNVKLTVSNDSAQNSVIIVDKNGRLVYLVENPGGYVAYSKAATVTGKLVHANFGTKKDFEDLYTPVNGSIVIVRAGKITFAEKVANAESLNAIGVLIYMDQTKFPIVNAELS

B1: 6.5.11.1 bivalent (Fc fusion)
chain: APELLGGPSVFLFPPKPKDTLMISRTPEVTCVVVDVSHEDPEVKFNWYVDGVEVHNAKTKPREEQYNSTYRVVSVLTVLHQDWLNGKEYKCKVSNKALPAPIEKTISKAKGQPREPQVYTLPPSRDELTKNQVSLTCLVKGFYPSDIAVNWFSNGQIENNYKTTPPVLDSDGSFFLYSKLTVDKSRWQQGNLFACEVMHEALHNHYTYKLLSLSPGK
notes: also called Clone 6.5.11.1 bivalent
B2: 6.5.11.5.42 bivalent (Fc fusion)
chain: B1 chain with L4A, L5A, N150Y, N154G, I157R
notes: both Fc with LALA
B3: Clone 27: LLB2-10-8 monovalent, non-binding Fabs, LALAPG (Fc fusion)
chain 1: APEAAGGPSVFLFPPKPKDTLMISRTPEVTCVVVDVSHEDPEVKFNWYVDGVEVHNAKTKPREEQYNSTYRVVSVLTVLHQDWLNGKEYKCKVSNKALGAPIEKTISKAKGQPREPQVYTLPPSRDELTKNQVSLWCLVKGFYPSDIAVLWNSRFVLENNYKTTPPVLDSDGSFFLYSKLTVDKSRWQQGEIFACNVYHEALHNHYTFKNLALSPGK
chain 2: APEAAGGPSVFLFPPKPKDTLMISRTPEVTCVVVDVSHEDPEVKFNWYVDGVEVHNAKTKPREEQYNSTYRVVSVLTVLHQDWLNGKEYKCKVSNKALGAPIEKTISKAKGQPREPQVYTLPPSRDELTKNQVSLSCAVKGFYPSDIAVEWESNGQPENNYKTTPPVLDSDGSFFLVSKLTVDKSRWQQGNVFSCSVMHEALHNHYTQKSLSLSPGK
notes: effector negative (LALAPG)
B4: human CD98hc (receptor)
chain: CRELPAQKWWHTGALYRIGDLQAFQGHGAGNLAGLKGRLDYLSSLKVKGLVLGPIHKNQKDDVAQTDLLQIDPNFGSKEDFDSLLQSAKKKSIRVILDLTPNYRGENSWFSTQVDTVATKVKDALEFWLQAGVDGFQVRDIENLKDASSFLAEWQNITKGFSEDRLLIAGTNSSDLQQILSLLESNKDLLLTSSYLSDSGSTGEHTKSLVTQYLNATGNRWCSWSLSQARLLTSFLPAQLLRLYQLMLFTLPGTPVFSYGDEIGLDAAALPGQPMEAPVMLWDESSFPDIPGAVSANMTVKGQSEDPGSLLSLFRRLSDQRSKERSLLHGDFHAFSAGPGLFSYIRHWDQNERFLVVLNFGDVGLSAGLQASDLPASASLPAKADLLLSTQPGREEGSPLELERLKLEPHEGLLLRFPYAA
notes: also called huCD98hc; CD98 heavy chain
B5: human CD98hc (receptor)
chain: B4 chain
notes: as for B4

Assay [1] has as its target T1, circularly permuted human TfR apical …. Kind of assay: Biacore SPR, Fc-Fab fusion.
Assay [2] shares this target. Briefly: Biacore SPR, Fc-Fab fusion; bivalent, LALA. A general note: In SPR one partner is held on a chip, and binding of the other changes the refractive index at the surface.
In assay [3] the target is B4. Kind of assay: affinity as listed in study design table; method not given there.
Assay [4] addresses T2, Clone 8: LLB2-10-6 monovalent, non-binding Fabs (Homo sapiens (Human), UniProt P0DOX5 233-449 = IgG part; P0DOX5 233-449 = IgG part, T366W).
T2 construct: CD98hc site on the knob Fc only; effector positive
The description is as above.

In assay [5] the target is T3, Clone 18: LLB2-37 monovalent, non-binding Fabs (Homo sapiens (Human), UniProt P0DOX5 233-449 = IgG part; P0DOX5 233-449 = IgG part, T366W).
T3 construct: CD98hc site on the knob Fc only; effector positive
Described as above.

Assay [6] addresses T2, Clone 8: LLB2-10-6 monovalent, …. Described as above. This is another data set of the same source.
For assay [7], the target named is T4, Clone 13: LLB1-3-16 monovalent, non-binding Fabs (Homo sapiens (Human), UniProt P0DOX5 233-449 = IgG part; P0DOX5 233-449 = IgG part, T366W).
T4 construct: CD98hc site on the knob Fc only; effector positive
Described as above.

In assay [8] the target is T2, Clone 8: LLB2-10-6 monovalent, …. Described as above. This is another data set of the same source.
Assay [9] shares this target. The assay is described as above. This is another data set of the same source.
Assay [10] has as its target T5, LLB2.10.8.10.3 (Homo sapiens (Human), UniProt P0DOX5 233-449 = IgG part; P0DOX5 233-449 = IgG part, T366W).
T5 construct: Fc parts only
Briefly: SPR (Biacore). In outline:
(§1)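 Surface plasmon resonance on a Biacore instrument was used to measure the binding affinity (Kd) of engineered Fc polypeptides for CD98hc. Each clone was cloned, expressed and purified as an Fc-Fab fusion bearing anti-BACE1 Fabs. Testing used either a bivalent format or a monovalent knob/hole format in which only the knob chain carried the CD98hc-binding site.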

Assay [11] deals with T6, LLB2.10.8.10.8 (Homo sapiens (Human), UniProt P0DOX5 233-449 = IgG part; P0DOX5 233-449 = IgG part, T366W).
T6 construct: Fc parts only
Kind of assay: SPR (Biacore). An outline of the steps: as §1

Assay [12] has as its target T7, LLB2.10.8.10.1 (Homo sapiens (Human), UniProt P0DOX5 233-449 = IgG part; P0DOX5 233-449 = IgG part, T366W).
T7 construct: Fc parts only
Kind of assay: SPR (Biacore). In outline: as §1

The target in assay [13] is T8, LLB2.10.8.2.1 (Homo sapiens (Human), UniProt P0DOX5 233-449 = IgG part; P0DOX5 233-449 = IgG part, T366W).
T8 construct: Fc parts only
Briefly: SPR (Biacore). In outline: as §1

Assay [14] addresses T9, LLB2.10.8.4.12 (Homo sapiens (Human), UniProt P0DOX5 233-449 = IgG part; P0DOX5 233-449 = IgG part, T366W).
T9 construct: Fc parts only
Kind of assay: SPR (Biacore). In outline: as §1

The target of assay [15] is T10, LLB2-10-6 Mono (Homo sapiens (Human), UniProt P0DOX5 233-449 = IgG part; P0DOX5 233-449 = IgG part, T366W).
T10 construct: Fc parts only
Kind of assay: SPR (Biacore). An outline of the steps:
as §1

Assay [16] deals with T11, LLB2.10.8.12.5 (Homo sapiens (Human), UniProt P0DOX5 233-449 = IgG part; P0DOX5 233-449 = IgG part, T366W).
T11 construct: Fc parts only
Kind of assay: SPR (Biacore). An outline of the steps: as §1

The target in assay [17] is T12, LLB2-37 (monovalent, Table A6) (Homo sapiens (Human), UniProt P0DOX5 233-449 = IgG part; P0DOX5 233-449 = IgG part, T366W).
T12 construct: Fc parts only
Briefly: SPR (Biacore). An outline of the steps:
as §1

Assay [18] concerns the target T13, LLB2-10-8-d1 MV (Homo sapiens (Human), UniProt P0DOX5 233-449 = IgG part; P0DOX5 233-449 = IgG part, T366W).
T13 construct: Fc parts only; MV = monovalent
Kind of assay: SPR (Biacore). In outline:
as §1

Assay [19] has as its target T14, LLB2-10-8-d3 MV (Homo sapiens (Human), UniProt P0DOX5 233-449 = IgG part; P0DOX5 233-449 = IgG part, T366W).
T14 construct: Fc parts only; MV = monovalent
Kind of assay: SPR (Biacore). An outline of the steps:
as §1

Positions count from the first letter of the chain named. Like-named read-outs stand apart in the source and are kept apart here.

Molecule B1 showed a Kd in [1] of 20000 to 40000 nM.
In turn, B2 had a Kd in assay [2] of 2000 nM.
As to B3, the Kd in assay [3] lay in the range of 100 to 200 nM.
On to B4, for which the Kd in assay [4] is 260 nM; in assay [5] it was 390 nM; in assay [6], 230 nM; in assay [7], 32 nM; in assay [8], 260 nM; in [9], 260 nM.
Turning to B5, the Kd was determined as 43 nM in [10]; 94 nM in assay [11]; 54 nM in assay [12]; 110 nM in assay [13]; 15 nM in assay [14]; 420 nM in [15]. Besides, the Kd was 230 nM in assay [16], 390 nM in [17], 250 nM in [18] and 470 nM in assay [19].
